From publication doi:10.1101/060434 (bioRxiv, 2016)

Biological target: the molecule itself
Assay: electron microscopy

B1: hepatitis E virus-like particle (HEV-LP) of the HEV ORF2 capsid protein, amino acids 368-606 (p239) (domain or fragment, UniProt P33426 368-606, looked up)
chain: IALTLFNLADTLLGGLPTELISSAGGQLFYSRPVVSANGEPTVKLYTSVENAQQDKGIAIPHDIDLGESRVVIQDYDNQHEQDRPTPSPAPSRPFSVLRANDVLWLSLTAAEYDQSTYGSSTGPVYVSDSVTLVNVATGAQAVARSLDWTKVTLDGRPLSTIQQYSKTFFVLPLRGKLSFWEAGTTKAGYPYNYNTTASDQLLVENAAGHRVAISTYTTSLGAGPVSISAVAVLAPHSV
  binding result: binds
